Measurements from PMC6430086.

Columns and labels:
[1] = molecular target: HIV-1 envelope glycoprotein gp120 (HIV-1) (UniProt P04578)
[2] = molecular target: HIV-1 envelope glycoprotein gp41 (HIV-1) (UniProt P04578)

Canavalia brasiliensis lectin (from UniProt P55915 1-237) (natural protein)
EC50 to inhibit giant cell (syncytium) formation in SupT1 + HUT-78/HIV-1 co-cultures (fusion by gp120/gp41-CD4 interaction) [1]: 75 nM | EC50 to inhibit giant cell (syncytium) formation in SupT1 + HUT-78/HIV-1 co-cultures (fusion by gp120/gp41-CD4 interaction) [2]: 75 nM

Canavalia maritima lectin (natural protein)
EC50 to inhibit giant cell (syncytium) formation in SupT1 + HUT-78/HIV-1 co-cultures (fusion by gp120/gp41-CD4 interaction) [1]: 75 nM | EC50 to inhibit giant cell (syncytium) formation in SupT1 + HUT-78/HIV-1 co-cultures (fusion by gp120/gp41-CD4 interaction) [2]: 75 nM

Dioclea lasiocarpa lectin (natural protein)
EC50 to inhibit giant cell (syncytium) formation in SupT1 + HUT-78/HIV-1 co-cultures (fusion by gp120/gp41-CD4 interaction) [1]: 46 nM | EC50 to inhibit giant cell (syncytium) formation in SupT1 + HUT-78/HIV-1 co-cultures (fusion by gp120/gp41-CD4 interaction) [2]: 46 nM

Dioclea sclerocarpa lectin (natural protein)
EC50 to inhibit giant cell (syncytium) formation in SupT1 + HUT-78/HIV-1 co-cultures (fusion by gp120/gp41-CD4 interaction) [1]: 63 nM | EC50 to inhibit giant cell (syncytium) formation in SupT1 + HUT-78/HIV-1 co-cultures (fusion by gp120/gp41-CD4 interaction) [2]: 63 nM
